Laboratory results published in paper PMC4141209.

Substrate: O=C(O)[C@H]1NCC[C@@H]1O
Assay: purified protein
Details: pH 8.0 Tris-HCl, 50 °C, 0.15 mM NADH, TlLhpI as coupling enzyme

B1: TlLhpH (Thermococcus litoralis DSM 5473) (protein)
chain: MFKKLENLEKWEPPKDWMVIKTLDTHTAGEPLRIILSGFPEIPGKTILEKRRYLMENLDHLRKALMWEPRGHADMYGAIITEPVSEEADFGVIFMHNEGYSTMCGHATIALGKVAVECGLVEAKEPITEIKMDSPAGLIKIYVKVRDGKVEKVYFHNVPSFVLFKDETINVPGIGEVKYDLAYGGAFYAFVNAEEIGLKCTPEYYRQLIDVGMKIKRAIMSEKEIRHPFEEDLSFLYGTIFIGEPEDENSHSRHVCIFADGEVDRSPTGTGVSARLAILYEKGEIDIGEEITIESIIGTKFTGKVVEETRYGLYRAIIPEVGGNAYIVAKNTFLIDPQDPLKYGFFLR
  Km: 288 µM
  kcat: 28.5 s⁻¹
